Test results: US9902758B2, “Three-helix bundle protein and use thereof” (Samsung Electronics Co., Ltd., priority 2015, dated 2018)

B1: M11: modified three-helix bundle protein, a3D variant, SEQ ID NO: 7 (protein)
chain: MGSWAEFSQRLFAIYWRLLALGGSEAELAAFEKEIAAFESELQAYKGKGNPEVEALRKEAAAIRDELQAYRHN
modifications: Synthetic M11
B2: M25: modified three-helix bundle protein, a3D variant, SEQ ID NO: 16 (protein)
chain: MGSWFEFAWRLLEIKTRLQALGGSEAELAAFEKEIAAFESELQAYKGKGNPEVEALRFEAYWIRLELQAYRHN
modifications: Synthetic M25

What was measured:
[1] = related art statement; cited from earlier work
[2] = tested on: SJSA-1 (p53+/+) osteosarcoma cell line; assay: Cell cycle arrest in SJSA-1 cells (EdU / Hoescht 33342 imaging); assay type: cell-based; details: 10 uM, 24 hours, compared to control (Mock), FIG. 7
Protocol: In this example, it was examined if the modified three-helix bundle proteins prepared in Example 3 can induce G1 and G2/M phase cell cycle arrest in SJSA-1 (p53+/+; ATCC), which is an osteosarcoma cell line expressing wild-type p53.
In particular, SJSA1 cells were treated with the modified three-helix bundle protein M11 or M25 at the concentration of 10 uM for 24 hours, and stained with EdU (Edu staining kit, Life Technology Inc.) and Hoescht 33342 (Life Technology Inc.). Among the cells, at least 1000 cells were analyzed by imaging with incell analyzer 6000 (Ge Healthcare) and incell communicator (GE Healthcare). For comparison, the same experiment using Nutlin 3a (Sigma) at the concentration of 10 uM was performed as a positive control.
The imaging results were analyzed by measuring the intensities of EdU (S phase indicator) and Hoescht33342 (DNA content indicator) at single cell level, and determining each population by measuring intensity of Hoescht33342 (DNA content indicator) and EdU (S phase indicator) at single cell level, thereby measuring ratio of cells at each cell cycle phase. The obtained population of each cell cycle phase was shown in FIG. 6, and the S phase measured by EdU uptake amount (EdU intensity) was shown in FIG. 7. […] G2/M is considered as a course progressing to G1 phase.

[3] = target: T1, full-length HDM2 (NP 002383.2) (Homo sapiens, UniProt Q00987); assay: ELISA binding strength to full-length HDM2; details: absorbance at 450 nm, GST-fused protein 0-5.5 uM, versus GST only (negative control) and GST-p53LZ2 (positive control), FIG. 4
T1 construct: full-length HDM2 (NP 002383.2)
Protocol: (§1) The binding strength of the modified three-helix bundle proteins prepared in Example 1 was examined by ELISA.
(§2) In particular, each of full-length HDM2 (NP 002383.2), HDM2 N-terminal domain (NTD; the region from 1st to 125th amino acids of NP 002383.2), full-length HDMX (NP_001191100.1), and HDMX NTD (the region from 1st to 132nd amino acids of NP_001191100.1) was diluted to the concentration of 20 μg/ml with coating buffer (pH 9.6; 0.05M carbonate-bicarbonate buffer, pH9.6; Sigma-Aldrich), and coated on 96 well (Nunc, Maxisorp). The well was incubated overnight at 4° C. Thereafter, bindings between other proteins were blocked with 300 ul of 3% skim milk w/PBS-T (at room temperature for 3 hours). The 96 well plate was washed with 200 uL of PBS-T and treated with GST-M11 (SEQ ID NO: 7) or GST-M25 (SEQ ID NO: 16) at a concentration of 0, 0.5, 1, 1.5, 2, 2.5, 3, 3.5, 4, 4.5, 5, or 5.5 uM (micromole). The GST protein was produced from GST cds included in pGEX-4T3 vector purchased from GE healthcare.
(§3) One hour after, the plate was washed with 300 uL of PBS-T, and treated with 100 uL of HRP conjugated-anti-GST antibody (Abcam, 1:2000). […] Thereafter, absorbance at 450 nm was measured using microwell reader (Molecular Device, 340PC384). […]

[4] = target: T2, HDMX NTD (the region from 1st to 132nd amino acids of NP_001191100.1) (Homo sapiens, UniProt O15151); assay: ELISA binding strength to HDMX NTD; details: absorbance at 450 nm, GST-fused protein 0-5.5 uM, versus GST only (negative control) and GST-p53LZ2 (positive control), FIG. 3
T2 construct: the region from 1st to 132nd amino acids of NP_001191100.1
T2 sequence (O15151 1-132 isoform O15151-5): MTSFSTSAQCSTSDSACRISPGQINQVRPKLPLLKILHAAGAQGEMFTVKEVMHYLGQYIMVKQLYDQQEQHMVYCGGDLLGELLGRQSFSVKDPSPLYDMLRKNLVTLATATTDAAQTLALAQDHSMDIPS
Protocol: as §1, §2, §3

[5] = target: T3, HDM2 N-terminal domain (NTD; the region from 1st to 125th amino acids of NP 002383.2) (Homo sapiens, UniProt Q00987); assay: ELISA binding strength to HDM2 NTD; details: absorbance at 450 nm, GST-fused protein 0-5.5 uM, versus GST only (negative control) and GST-p53LZ2 (positive control), FIG. 5
T3 construct: the region from 1st to 125th amino acids of NP 002383.2
Protocol: as §1, §2, §3

[6] = tested on: SJSA-1 (p53+/+) osteosarcoma cell line; assay: Cancer cell proliferation inhibition in SJSA-1 cells (CellTiter-Glo cell viability); assay type: cell-based; details: 5 days, TAT-coupled protein, FIG. 8; for cancer cell death rate: 10.00 uM
Protocol: The effects of the modified three-helix bundle proteins prepared in Example 1 to inhibit cancer cell proliferation was examined in SJSA-1 (p53+/+; ATCC), which is an osteosarcoma cell line expressing wild-type p53.
The cells were cultured in CO2 incubator under the conditions of 37° C., and CO2 5%, for 5 days. 80 uL of CellTiter-Glo reagent (Promega) was added to each well, and luminescence was measured with EnVision Multilabel Reader (PerkinElmer), to measure cell viability. The cell viability is indicated by a relative value to that of non-treated cells (“1.0”).

T1 sequence (Q00987 1-497 isoform Q00987-11): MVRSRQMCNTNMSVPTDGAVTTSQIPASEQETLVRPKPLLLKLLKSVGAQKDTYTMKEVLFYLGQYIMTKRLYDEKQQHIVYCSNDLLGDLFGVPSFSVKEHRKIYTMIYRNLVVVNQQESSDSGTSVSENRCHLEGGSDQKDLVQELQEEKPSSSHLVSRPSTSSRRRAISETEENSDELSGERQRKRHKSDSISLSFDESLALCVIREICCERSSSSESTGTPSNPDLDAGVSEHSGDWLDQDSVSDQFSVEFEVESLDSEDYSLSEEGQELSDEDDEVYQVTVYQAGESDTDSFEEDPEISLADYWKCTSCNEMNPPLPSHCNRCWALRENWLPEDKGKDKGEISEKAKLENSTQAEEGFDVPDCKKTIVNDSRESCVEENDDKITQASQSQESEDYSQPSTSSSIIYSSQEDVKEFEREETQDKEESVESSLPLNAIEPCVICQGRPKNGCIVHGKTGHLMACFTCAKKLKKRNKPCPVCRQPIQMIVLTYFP
T3 sequence (Q00987 1-125 isoform Q00987-11): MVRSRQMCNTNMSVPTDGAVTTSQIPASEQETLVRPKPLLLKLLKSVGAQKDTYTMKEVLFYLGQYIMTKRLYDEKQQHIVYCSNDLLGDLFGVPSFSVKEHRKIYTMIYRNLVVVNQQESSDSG

| Molecule | cytotoxicity [1] | level (cell number) of cells at S phase measured by EdU intensity [2] | binding strength to full-length HDM2 [3] | binding strength to HDMX NTD [4] | binding strength to HDM2 NTD [5] | cancer cell death rate [6] | cancer cell proliferation inhibition effect compared with positive control [6] |
| --- | --- | --- | --- | --- | --- | --- | --- |
| COc1ccc(C2=N[C@@H](c3ccc(Cl)cc3)[C@@H](c3ccc(Cl)cc3)N2C(=O)N2CCNC(=O)C2)c(OC(C)C)c1 [Nutlin-3] | high level of cytotoxicity |  |  |  |  |  |  |
| COc1ccc(C2=N[C@@H](c3ccc(Cl)cc3)[C@@H](c3ccc(Cl)cc3)N2C(=O)N2CCNC(=O)C2)c(OC(C)C)c1 [nutlin3a, Nutlin 3a, reference compound] |  | decrease in level (cell number) of cells at S phase compared to that of control (Mock) |  |  |  |  |  |
| B1 |  | decrease in level (cell number) of cells at S phase compared to that of control (Mock) | considerably higher than that of the negative control, and similar to or higher than that of the positive control | considerably higher than that of the negative control, and similar to or higher than that of the positive control | considerably higher than that of the negative control, and similar to or higher than that of the positive control | at least 90% | equal to that of Nutlin-3 |
| B2 |  | decrease in level (cell number) of cells at S phase compared to that of control (Mock) | considerably higher than that of the negative control, and similar to or higher than that of the positive control | considerably higher than that of the negative control, and similar to or higher than that of the positive control | considerably higher than that of the negative control, and similar to or higher than that of the positive control | at least 80% | equal to that of Nutlin-3 |
